Test results reported in PMC12170345 (Nature Structural & Molecular Biology, 2025).

T1: CCDC66 (full length, GFP- or mCherry-tagged) (human, UniProt A2RUB6 1-948)
T1 construct: CCDC66, human, full-length protein; source: HEK293T, transiently transfected; purified (StrepTactin beads) for in vitro assays; in lysate for coimmunoprecipitation; not shown: GFP or mCherry, N-terminal, kept
T1 sequence (looked up): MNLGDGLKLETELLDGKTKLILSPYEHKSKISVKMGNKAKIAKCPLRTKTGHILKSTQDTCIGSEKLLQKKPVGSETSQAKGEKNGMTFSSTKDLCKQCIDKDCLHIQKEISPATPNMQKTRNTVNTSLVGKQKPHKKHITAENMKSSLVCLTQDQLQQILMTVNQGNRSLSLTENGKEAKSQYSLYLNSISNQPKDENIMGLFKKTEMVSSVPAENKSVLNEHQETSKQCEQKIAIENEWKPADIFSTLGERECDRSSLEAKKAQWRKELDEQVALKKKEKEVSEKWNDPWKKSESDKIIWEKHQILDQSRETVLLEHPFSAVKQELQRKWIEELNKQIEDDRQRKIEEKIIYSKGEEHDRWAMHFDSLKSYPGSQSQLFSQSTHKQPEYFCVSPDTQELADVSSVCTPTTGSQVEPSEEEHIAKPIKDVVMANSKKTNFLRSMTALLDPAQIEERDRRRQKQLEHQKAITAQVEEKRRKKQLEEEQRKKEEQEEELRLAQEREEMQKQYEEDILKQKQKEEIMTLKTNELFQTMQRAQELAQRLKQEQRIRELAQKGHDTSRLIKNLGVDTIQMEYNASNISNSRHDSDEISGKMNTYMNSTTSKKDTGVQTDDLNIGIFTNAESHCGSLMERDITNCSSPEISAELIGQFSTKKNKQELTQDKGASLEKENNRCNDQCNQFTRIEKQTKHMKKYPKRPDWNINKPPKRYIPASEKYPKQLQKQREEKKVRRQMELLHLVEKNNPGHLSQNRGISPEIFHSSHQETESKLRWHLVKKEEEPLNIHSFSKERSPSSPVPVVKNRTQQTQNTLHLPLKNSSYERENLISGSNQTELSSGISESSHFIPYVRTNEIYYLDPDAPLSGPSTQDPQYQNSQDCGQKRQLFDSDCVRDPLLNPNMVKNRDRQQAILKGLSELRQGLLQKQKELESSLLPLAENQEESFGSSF

B1: CEP104 (full length, GFP- or mCherry-tagged) (natural protein, human, UniProt O60308 1-925, looked up)
chain: MPHKIGFVVVSSSGHEDGFSARELMIHAPTVSGWRSPRFCQFPQEIVLQMVERCRIRKLQLLAHQYMISSKIEFYISESLPEYFAPYQAERFRRLGYVSLCDNEKTGCKARELKSVYVDAVGQFLKLIFHQNHVNKYNIYNQVALVAINIIGDPADFSDESNTASREKLIDHYLGHNSEDPALEGTYARKSDYISPLDDLAFDMYQDPEVAQIIRKLDERKREAVQKERYDYAKKLKQAIADLQKVGERLGRYEVEKRCAVEKEDYDLAKEKKQQMEQYRAEVYEQLELHSLLDAELMRRPFDLPLQPLARSGSPCHQKPMPSLPQLEERGTENQFAEPFLQEKPSSYSLTISPQHSAVDPLLPATDPHPKINAESLPYDERPLPAIRKHYGEAVVEPEMSNADISDARRGGMLGEPEPLTEKALREASSAIDVLGETLVAEAYCKTWSYREDALLALSKKLMEMPVGTPKEDLKNTLRASVFLVRRAIKDIVTSVFQASLKLLKMIITQYIPKHKLSKLETAHCVERTIPVLLTRTGDSSARLRVTAANFIQEMALFKEVKSLQIIPSYLVQPLKANSSVHLAMSQMGLLARLLKDLGTGSSGFTIDNVMKFSVSALEHRVYEVRETAVRIILDMYRQHQASILEYLPPDDSNTRRNILYKTIFEGFAKIDGRATDAEMRARRKAATEEAEKQKKEEIKALQGQLAALKEIQAEVQEKESDAVKPKNQDIQGGKAAPAEALGIPDEHYLDNLCIFCGERSESFTEEGLDLHYWKHCLMLTRCDHCKQVVEISSLTEHLLTECDKKDGFGKCYRCSEAVFKEELPRHIKHKDCNPAKPEKLANRCPLCHENFSPGEEAWKAHLMGPAGCTMNLRKTHILQKAPALQPGKSSAVAASGPLGSKAGSKIPTPKGGLSKSSSRTYAKR
notes: CEP104, human, full-length protein; Cloned into pTT5-C1-based expression vectors (vector: Addgene 52355); Dimer by single-molecule counting; also called GFP–CEP104; mCherry–CEP104; source: HEK293T, transiently transfected; purified (StrepTactin beads) for in vitro assays; in lysate for coimmunoprecipitation; not shown: GFP or mCherry, N-terminal, kept
B2: ARMC9 (full length, GFP- or mCherry-tagged) (natural protein, human, UniProt Q7Z3E5 1-818, looked up)
chain: MGDILAHESELLGLVKEYLDFAEFEDTLKTFSKECKIKGKPLCKTVGGSFRDSKSLTIQKDLVAAFDNGDQKVFFDLWEEHISSSIRDGDSFAQKLEFYLHIHFAIYLLKYSVGRPDKEELDEKISYFKTYLETKGAALSQTTEFLPFYALPFVPNPMVHPSFKELFQDSWTPELKLKLIKFLALISKASNTPKLLTIYKENGQSNKEILQQLHQQLVEAERRSVTYLKRYNKIQADYHNLIGVTAELVDSLEATVSGKMITPEYLQSVCVRLFSNQMRQSLAHSVDFTRPGTASTMLRASLAPVKLKDVPLLPSLDYEKLKKDLILGSDRLKAFLLQALRWRLTTSHPGEQRETVLQAYISNDLLDCYSHNQRSVLQLLHSTSDVVRQYMARLINAFASLAEGRLYLAQNTKVLQMLEGRLKEEDKDIITRENVLGALQKFSLRRPLQTAMIQDGLIFWLVDVLKDPDCLSDYTLEYSVALLMNLCLRSTGKNMCAKVAGLVLKVLSDLLGHENHEIQPYVNGALYSILSVPSIREEARAMGMEDILRCFIKEGNAEMIRQIEFIIKQLNSEELPDGVLESDDDEDEDDEEDHDIMEADLDKDELIQPQLGELSGEKLLTTEYLGIMTNTGKTRRKGLANVQWSGDEPLQRPVTPGGHRNGYPVVEDQHTPPQTAQHARNGHPQALPAAHEAVYREGKPSTPESCVSSSSAIIAKPGEWLPRGRQEEPRPAPTGTPRQPREAPQDPGNGVTTRECASAFTCKPRAPCTPEMLDWNPPKAKASVLAPLFSSCGPQQASRPGSTASSTRGLPSSQSHRK
notes: ARMC9, human, full-length protein; Dimer by single-molecule counting; multimers by SEC; also called GFP–ARMC9; GFP-ARMC9 FL; source: HEK293T, transiently transfected; purified (StrepTactin beads) for in vitro assays; in lysate for coimmunoprecipitation; not shown: GFP or mCherry, N-terminal, kept

Key:
[1] = molecular target: T1, CCDC66 (full length, GFP- or …); experiment: in vitro reconstitution on dynamic microtubules (TIRF microscopy); recruitment of one fluorescent protein to MTs by another that is on the MTs; 15 µM tubulin, with or without 20 nM EB3; MRB80, 50 mM KCl, 1 mM GTP, 30 °C; details: both partners purified
[2] = molecular target: the molecule itself; experiment: single-molecule fluorescence intensity counting (TIRF microscopy); GFP-tagged protein diluted in PBS and immobilised on a plasma-cleaned coverslip; intensities compared with single GFP and GFP–EB3 dimers in adjacent chambers
[3] = molecular target: TOGARAM1 (mouse, full length, GFP- or mCherry-tagged) (mouse, UniProt Q6A070 1-1776); experiment: cell-based or functional assay
Chain of TOGARAM1 (mouse, full length, GFP- or mCherry-tagged) (Q6A070 whole entry): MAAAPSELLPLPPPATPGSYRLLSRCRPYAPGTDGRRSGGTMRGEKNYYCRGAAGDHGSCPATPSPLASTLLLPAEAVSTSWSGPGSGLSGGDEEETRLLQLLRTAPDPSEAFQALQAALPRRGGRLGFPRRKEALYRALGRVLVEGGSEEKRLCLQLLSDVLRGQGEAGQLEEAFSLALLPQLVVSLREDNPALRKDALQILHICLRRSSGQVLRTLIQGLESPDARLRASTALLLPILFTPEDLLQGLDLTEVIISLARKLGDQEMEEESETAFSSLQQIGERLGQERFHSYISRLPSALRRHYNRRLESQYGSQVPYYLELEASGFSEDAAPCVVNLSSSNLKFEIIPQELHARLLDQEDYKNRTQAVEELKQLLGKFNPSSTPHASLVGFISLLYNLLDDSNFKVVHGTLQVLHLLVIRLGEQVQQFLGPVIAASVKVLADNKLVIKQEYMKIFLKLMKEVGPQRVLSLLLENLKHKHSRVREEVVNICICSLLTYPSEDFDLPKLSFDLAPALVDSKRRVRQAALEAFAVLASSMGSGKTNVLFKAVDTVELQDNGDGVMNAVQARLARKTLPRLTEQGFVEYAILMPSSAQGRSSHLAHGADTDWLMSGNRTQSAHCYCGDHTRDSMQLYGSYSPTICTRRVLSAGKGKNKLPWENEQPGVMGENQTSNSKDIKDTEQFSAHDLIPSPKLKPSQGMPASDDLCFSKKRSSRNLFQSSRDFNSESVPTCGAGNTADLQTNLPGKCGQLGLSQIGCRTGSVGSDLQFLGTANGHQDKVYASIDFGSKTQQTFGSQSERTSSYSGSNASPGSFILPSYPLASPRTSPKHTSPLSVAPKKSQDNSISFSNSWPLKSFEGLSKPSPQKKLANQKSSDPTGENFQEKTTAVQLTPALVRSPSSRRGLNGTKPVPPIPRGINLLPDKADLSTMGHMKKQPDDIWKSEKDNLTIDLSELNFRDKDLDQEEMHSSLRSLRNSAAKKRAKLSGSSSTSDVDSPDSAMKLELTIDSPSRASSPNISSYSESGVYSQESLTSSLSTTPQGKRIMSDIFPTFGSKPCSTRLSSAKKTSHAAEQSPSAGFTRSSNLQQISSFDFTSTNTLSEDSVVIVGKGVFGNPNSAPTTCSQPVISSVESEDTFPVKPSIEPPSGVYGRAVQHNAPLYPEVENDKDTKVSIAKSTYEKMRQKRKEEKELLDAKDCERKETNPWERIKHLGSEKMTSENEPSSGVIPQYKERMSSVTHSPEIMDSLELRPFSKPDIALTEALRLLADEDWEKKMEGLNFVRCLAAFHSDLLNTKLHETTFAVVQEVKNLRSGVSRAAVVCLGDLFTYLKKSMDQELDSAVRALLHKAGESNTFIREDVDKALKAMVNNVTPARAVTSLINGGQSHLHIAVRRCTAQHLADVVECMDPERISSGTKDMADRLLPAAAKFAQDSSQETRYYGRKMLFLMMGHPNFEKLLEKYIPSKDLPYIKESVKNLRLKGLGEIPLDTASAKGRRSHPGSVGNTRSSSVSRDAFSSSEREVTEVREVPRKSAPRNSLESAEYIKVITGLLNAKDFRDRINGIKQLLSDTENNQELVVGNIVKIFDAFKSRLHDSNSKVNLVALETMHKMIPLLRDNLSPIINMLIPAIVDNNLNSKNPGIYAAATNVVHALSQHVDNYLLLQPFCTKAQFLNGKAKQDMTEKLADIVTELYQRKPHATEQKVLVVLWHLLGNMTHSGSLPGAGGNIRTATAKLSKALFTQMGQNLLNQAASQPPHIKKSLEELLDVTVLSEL

Row | Binder | binding result [1] | stoichiometry N [2] | rescue activity of TOGARAM1 on MTs in the presence of ARMC9 [3]
1 | B1 | binds | 2 | 
2 | B2 |  | 2 | ~2 fold
